In patent publication US20230051304A1 (Regeneron, published 2023):
Numbering of substitutions follows the chain as printed.

B1: Bivalent: Fc-IL12(p40-p35) (Fc fusion)
chain: ESKYGPPCPPCPAPPVAGPSVFLFPPKPKDTLMISRTPEVTCVVVDVSQEDPEVQFNWYVDGVEVHNAKTKPREEQFNSTYRVVSVLTVLHQDWLNGKEYKCKVSNKGLPSSIEKTISKAKGQPREPQVYTLPPSQEEMTKNQVSLTCLVKGFYPSDIAVEWESNGQPENNYKTTPPVLDSDGSFFLYSRLTVDKSRWQEGNVFSCSVMHEALHNHYTQKSLSLSLGKGGGGSGGGGSGGGGSMWELEKDVYVVEVDWTPDAPGETVNLTCDTPEEDDITWTSDQRHGVIGSGKTLTITVKEFLDAGQYTCHKGGETLSHSHLLLHKKENGIWSTEILKNFKNKTFLKCEAPNYSGRFTCSWLVQRNMDLKFNIKSSSSSPDSRAVTCGMASLSAEKVTLDQRDYEKYSVSCQEDVTCPTAEETLPIELALEARQQNKYENYSTSFFIRDIIKPDPPKNLQMKPLKNSQVEVSWEYPDSWSTPHSYFSLKFFVRIQRKKEKMKETEEGCNQKGAFLVEKTSTEVQCKGGNVCVQAQDRYYNSSCSKWACVPCRVRSGGGGSGGGGSGGGGSRVIPVSGPARCLSQSRNLLKTTDDMVKTAREKLKHYSCTAEDIDHEDITRDQTSTLKTCLPLELHKNESCLATRETSSTTRGSCLPPQKTSLMMTLCLGSIYEDLKMYQTEFQAINAALQNHNHQQIILDKGMLVAIDELMQSLNHNGETLRQKPPVGEADPYRVKMKLCILLHAFSTRVVTINRVMGYLSSA
B2: Fc-IL12(mutein 14) (Fc fusion)
chain: B1 chain with E302A, F303A
B3: Fc-IL12(mutein 17) (Fc fusion)
chain: B1 chain with E336A, K438A
B4: Fc-IL12(mutein 15) (Fc fusion)
chain: B1 chain with E302A, F303A, K327A
B5: Fc-IL12(mutein 16) (Fc fusion)
chain: B1 chain with W258A, F303A
B6: IL12(mutein 13)-Fc (Fc fusion)
chain: NGIWSTEILKNFKNKTFLKCEAPNYSGRFTCSWLVQRNMDLKFNIKSSSSSPDSRAVTCGMASLSAEKVTLDQRDYEKYSVSCQEDVTCPTAEETLPIELALEARQQNKYENYSTSFFIRDIIKPDPPKNLQMKPLKNSQVEVSWEYPDSWSTPHSYFSLKFFVRIQRKKEKMKETEEGCNQKGAFLVEKTSTEVQCKGGNVCVQAQDRYYNSSCSKWACVPCRVRSGGGGSGGGGSGGGGSRVIPVSGPARCLSQSRNLLKTTDDMVKTAREKLKHYSCTAEDIDHEDITRDQTSTLKTCLPLELHKNESCLATRETSSTTRGSCLPPQKTSLMMTLCLGSIYEDLKMYQTEFQAINAALQNHNHQQIILDKGMLVAIDELMQSLNHNGETLRQKPPVGEADPYRVKMKLCILLHAFSTRVVTINRVMGYLSSAGGGGSGGGGSGGGGSESKYGPPCPPCPAPPVAGPSVFLFPPKPKDTLMISRTPEVTCVVVDVSQEDPEVQFNWYVDGVEVHNAKTKPREEQFNSTYRVVSVLTVLHQDWLNGKEYKCKVSNKGLPSSIEKTISKAKGQPREPQVYTLPPSQEEMTKNQVSLTCLVKGFYPSDIAVEWESNGQPENNYKTTPPVLDSDGSFFLYSRLTVDKSRWQEGNVFSCSVMHEALHNHYTQKSLSLSLGK
B7: Bivalent: Fc-IL12*(p40*-p35*) (Fc fusion)
chain: B1 chain with C418S, C641S
B8: Monovalent: IL12(p35xp40)-Fc (Fc fusion)
chain 1: RVIPVSGPARCLSQSRNLLKTTDDMVKTAREKLKHYSCTAEDIDHEDITRDQTSTLKTCLPLELHKNESCLATRETSSTTRGSCLPPQKTSLMMTLCLGSIYEDLKMYQTEFQAINAALQNHNHQQIILDKGMLVAIDELMQSLNHNGETLRQKPPVGEADPYRVKMKLCILLHAFSTRVVTINRVMGYLSSAGGGGSGGGGSGGGGSESKYGPPCPPCPAPPVAGPSVFLFPPKPKDTLMISRTPEVTCVVVDVSQEDPEVQFNWYVDGVEVHNAKTKPREEQFNSTYRVVSVLTVLHQDWLNGKEYKCKVSNKGLPSSIEKTISKAKGQPREPQVYTLPPSQEEMTKNQVSLWCLVKGFYPSDIAVEWESNGQPENNYKTTPPVLDSDGSFFLYSRLTVDKSRWQEGNVFSCSVMHEALHNHYTQKSLSLSLGK
chain 2: MWELEKDVYVVEVDWTPDAPGETVNLTCDTPEEDDITWTSDQRHGVIGSGKTLTITVKEFLDAGQYTCHKGGETLSHSHLLLHKKENGIWSTEILKNFKNKTFLKCEAPNYSGRFTCSWLVQRNMDLKFNIKSSSSSPDSRAVTCGMASLSAEKVTLDQRDYEKYSVSCQEDVTCPTAEETLPIELALEARQQNKYENYSTSFFIRDIIKPDPPKNLQMKPLKNSQVEVSWEYPDSWSTPHSYFSLKFFVRIQRKKEKMKETEEGCNQKGAFLVEKTSTEVQCKGGNVCVQAQDRYYNSSCSKWACVPCRVRSGGGGSGGGGSGGGGSESKYGPPCPPCPAPPVAGPSVFLFPPKPKDTLMISRTPEVTCVVVDVSQEDPEVQFNWYVDGVEVHNAKTKPREEQFNSTYRVVSVLTVLHQDWLNGKEYKCKVSNKGLPSSIEKTISKAKGQPREPQVYTLPPSQEEMTKNQVSLSCAVKGFYPSDIAVEWESNGQPENNYKTTPPVLDSDGSFFLVSRLTVDKSRWQEGNVFSCSVMHEALHNRFTQKSLSLSPGK
B9: Monovalent: IL12*(p35*xp40*)-Fc (Fc fusion)
chain 1: B8 chain 1 with C70S
chain 2: B8 chain 2 with C175S
B10: Bivalent: IL12(p40-p35)-Fc (Fc fusion)
chain: MWELEKDVYVVEVDWTPDAPGETVNLTCDTPEEDDITWTSDQRHGVIGSGKTLTITVKEFLDAGQYTCHKGGETLSHSHLLLHKKENGIWSTEILKNFKNKTFLKCEAPNYSGRFTCSWLVQRNMDLKFNIKSSSSSPDSRAVTCGMASLSAEKVTLDQRDYEKYSVSCQEDVTCPTAEETLPIELALEARQQNKYENYSTSFFIRDIIKPDPPKNLQMKPLKNSQVEVSWEYPDSWSTPHSYFSLKFFVRIQRKKEKMKETEEGCNQKGAFLVEKTSTEVQCKGGNVCVQAQDRYYNSSCSKWACVPCRVRSGGGGSGGGGSGGGGSRVIPVSGPARCLSQSRNLLKTTDDMVKTAREKLKHYSCTAEDIDHEDITRDQTSTLKTCLPLELHKNESCLATRETSSTTRGSCLPPQKTSLMMTLCLGSIYEDLKMYQTEFQAINAALQNHNHQQIILDKGMLVAIDELMQSLNHNGETLRQKPPVGEADPYRVKMKLCILLHAFSTRVVTINRVMGYLSSAGGGGSGGGGSGGGGSESKYGPPCPPCPAPPVAGPSVFLFPPKPKDTLMISRTPEVTCVVVDVSQEDPEVQFNWYVDGVEVHNAKTKPREEQFNSTYRVVSVLTVLHQDWLNGKEYKCKVSNKGLPSSIEKTISKAKGQPREPQVYTLPPSQEEMTKNQVSLTCLVKGFYPSDIAVEWESNGQPENNYKTTPPVLDSDGSFFLYSRLTVDKSRWQEGNVFSCSVMHEALHNHYTQKSLSLSLGK
B11: Bivalent: IL12*(p40*-p35*)-Fc (Fc fusion)
chain: B10 chain with C175S, C398S

target: T1, murine IL12 receptor complex (IL12Rβ1 and IL12Rβ2) (mouse, UniProt Q60837 20-738; P97378 24-874); assay: cell-based or functional assay
T1 sequence (Q60837 20-738, chain 1 of 2): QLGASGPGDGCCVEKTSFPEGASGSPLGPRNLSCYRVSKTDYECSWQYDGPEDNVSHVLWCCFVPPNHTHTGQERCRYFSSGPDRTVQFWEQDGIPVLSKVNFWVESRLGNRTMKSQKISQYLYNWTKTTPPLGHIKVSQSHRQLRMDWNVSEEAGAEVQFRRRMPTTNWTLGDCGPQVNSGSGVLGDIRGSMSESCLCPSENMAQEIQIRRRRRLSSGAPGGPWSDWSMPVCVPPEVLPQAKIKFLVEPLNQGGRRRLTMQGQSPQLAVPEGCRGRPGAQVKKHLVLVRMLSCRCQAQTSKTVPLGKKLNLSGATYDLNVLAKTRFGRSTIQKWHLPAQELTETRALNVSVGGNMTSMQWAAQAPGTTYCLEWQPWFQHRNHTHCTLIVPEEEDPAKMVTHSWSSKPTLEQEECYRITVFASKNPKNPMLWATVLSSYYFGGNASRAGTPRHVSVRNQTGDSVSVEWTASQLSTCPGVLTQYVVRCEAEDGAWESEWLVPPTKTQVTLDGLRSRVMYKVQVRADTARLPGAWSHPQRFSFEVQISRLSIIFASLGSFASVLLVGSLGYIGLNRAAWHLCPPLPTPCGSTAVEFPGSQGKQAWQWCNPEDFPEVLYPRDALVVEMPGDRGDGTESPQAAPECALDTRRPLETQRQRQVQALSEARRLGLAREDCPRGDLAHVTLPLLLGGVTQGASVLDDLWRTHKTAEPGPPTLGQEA
T1 sequence (P97378 24-874, chain 2 of 2): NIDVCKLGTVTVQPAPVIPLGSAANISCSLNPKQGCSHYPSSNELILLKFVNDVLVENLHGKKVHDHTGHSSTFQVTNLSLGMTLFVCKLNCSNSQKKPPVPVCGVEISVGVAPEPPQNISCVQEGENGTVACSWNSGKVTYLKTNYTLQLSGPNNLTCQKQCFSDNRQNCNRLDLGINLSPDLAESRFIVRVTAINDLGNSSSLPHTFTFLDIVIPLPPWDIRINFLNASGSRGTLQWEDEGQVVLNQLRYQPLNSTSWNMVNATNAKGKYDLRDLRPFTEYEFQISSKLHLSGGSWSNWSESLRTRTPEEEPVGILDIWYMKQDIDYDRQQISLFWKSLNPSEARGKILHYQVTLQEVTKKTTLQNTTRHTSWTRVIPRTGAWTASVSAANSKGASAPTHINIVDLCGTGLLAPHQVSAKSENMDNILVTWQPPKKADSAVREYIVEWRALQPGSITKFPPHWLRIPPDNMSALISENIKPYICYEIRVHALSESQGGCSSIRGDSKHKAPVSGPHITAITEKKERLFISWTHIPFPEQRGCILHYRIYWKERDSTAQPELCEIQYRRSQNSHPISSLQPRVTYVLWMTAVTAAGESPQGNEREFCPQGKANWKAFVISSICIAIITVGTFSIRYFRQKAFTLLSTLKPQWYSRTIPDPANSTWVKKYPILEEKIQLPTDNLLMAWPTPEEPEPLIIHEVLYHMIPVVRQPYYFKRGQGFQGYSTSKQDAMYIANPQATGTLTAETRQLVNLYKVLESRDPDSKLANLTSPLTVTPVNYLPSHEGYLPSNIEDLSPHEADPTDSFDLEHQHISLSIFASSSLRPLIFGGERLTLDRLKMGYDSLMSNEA

Binder	EC50 (M); STAT3-Luc reporter, CTLL2/STAT3-Luc cells	Max fold induction; STAT3-Luc reporter, CTLL2/STAT3-Luc cells
B1	9.95e-11 M	12.2 fold
B2	3.79e-09 M	7.31 fold
B3	3.53e-10 M	9.67 fold
B4		1.18 fold
B5	1.67e-08 M	2.48 fold

target: T1, murine IL12 receptor complex (IL12Rβ1 …); assay: cell-based or functional assay; remark: another data set of the same source

Binder	EC50 (M); STAT3-Luc reporter, CTLL2/STAT3-Luc cells	Fold induction at 20 nM; STAT3-Luc reporter, CTLL2/STAT3-Luc cells	Max fold induction; STAT3-Luc reporter, CTLL2/STAT3-Luc cells
B1	6.11e-11 M	12.8 fold	14.4 fold
B6		1.37 fold	27.5 fold

target: T1, murine IL12 receptor complex (IL12Rβ1 …); assay: cell-based or functional assay; remark: another data set of the same source

Binder	EC50 (M); STAT3-Luc reporter, CTLL2/STAT3-Luc cells	Fold induction at 6.25 nM; STAT3-Luc reporter, CTLL2/STAT3-Luc cells	Max fold induction; STAT3-Luc reporter, CTLL2/STAT3-Luc cells
B1	1.85e-11 M	6.73 fold	7.66 fold
B7	1.8e-11 M	5.96 fold	7.83 fold
B8	6.47e-11 M	9.58 fold	9.89 fold
B9	8.11e-11 M	8.93 fold	9.62 fold
B10	1.16e-11 M	7.52 fold	15.4 fold
B11	1.72e-11 M	7.01 fold	8.48 fold
